The supplement of paper PMC10567573
± gives the standard deviation.

Assay: protein stability index of a GFP-peptide fusion (GPS, HEK-293T) (PSI 1-6); higher = more stable
Conditions: c terminus: a fixed tail appended
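Further: 24-mer peptide tiles fused after GFP, lentivirally expressed, FACS-sorted into six equal bins by GFP/DsRed ratio, decoded by Illumina sequencing, PSI is the read-weighted mean bin number.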

Sequence	protein stability index (treatment: DMSO)	protein stability index (treatment: MLN4924 1 uM, 8 h)
MIPGFRDLTSEDQIVLLKSSAIEV [VDR]	2.33 ± 0.25	2.43 ± 0.18
FPPDLVFRADQRSGPRQLLTLYNP [MOSPD3]	3.13 ± 0.67	2.93 ± 0.29
QNYISQKEDASEFQILKYLFQIDV [MIA2]	2.28 ± 0.21	2.25 ± 0.45
IDLSHVTSKCGSLKNIRHRPGGGR [MAP2]	3.18 ± 0.15	3.35 ± 0.3
KRSQSMKSYPSSELRNMCDEHIAS [CLCN6]	4.56 ± 0.34	4.734 ± 0.012
RYWRSLRVMKVEDREGPSSSKLVT [HDAC6]	2.79 ± 0.22	3.07 ± 0.44
SEKSQREDEEEEEGENYQKGERGE [CHGB]	5.48 ± 0.28	5.58 ± 0.28
ILLSWTPPRSDTIANYELVYKDGE [PTPRD]	2.03 ± 0.41	2.23 ± 0.42
HEKTVDIYGHVTLMRAQRNYMVQT [PTPRD]	2.32 ± 0.4	2.18 ± 0.43
PRNPTVRWGYVAMKFAQVFGCFFY [SOAT1]	2.33 ± 0.2	2.18 ± 0.2
MKIFREKIEDFREEMWTFRGKIHA [CCDC70]	2.07 ± 0.26	2.39 ± 0.43
LLRQLGRDAGATPSAAGAPASAPG [ANKRD9]	4.12 ± 0.4	4.36 ± 0.15
AAKIIPHSRVAKPHQREKIDKEIE [PLK2]	5.02 ± 0.42	4.7 ± 0.4
PNNKEIPSHHPTDPVELRRLNFQT [PTPRD]	4.15 ± 0.18	4.35 ± 0.081
LSLPYLPSGTPELEVPKPGQPSEP [CHIT1]	5.09 ± 0.22	5.21 ± 0.15
EEENPGGCEDEYLVNPTCQVLVKD [ZER1]	5.54 ± 0.22	5.54 ± 0.22
ILPKELQTWVRDHHPENGEEAVTV [ZNF24]	3.92 ± 0.17	4.17 ± 0.25
VRYSDCCERVVINVSGLRFETQMK [KCNA4]	2.31 ± 0.46	2.33 ± 0.37
QRLIVGNSALKDKEDQFGRTPLMY [INVS]	3.05 ± 0.31	3.31 ± 0.35
DVNDNSPELTITSLFSPVTEDSPL [PCDHGA10]	4.53 ± 0.21	4.65 ± 0.36
SDRPFKCNQCGKCFIQSSHLIRHQ [ZNF8]	3.31 ± 0.17	3.76 ± 0.61
TPLTEGSEDLDGHSDPEESFARDL [RETREG3]	5.51 ± 0.18	5.524 ± 0.053
EEPVFEAVINWVKHAKKEREESLP [KLHL12]	4.16 ± 0.48	4.17 ± 0.28

Sequence	protein stability index (treatment: DMSO)	protein stability index (treatment: MLN4924 1 uM, 8 h)
GARSKGQCPEPPIVVHCSAGIGRT [PTPN9]	3.46 ± 0.32	3.77 ± 0.46
PPALLPLYFQWYIFYFVIQRKKWV [FADS1]	2.68 ± 0.059	2.73 ± 1.6
RALNSVPVIIAAVGTRQNEELPCT [RHOBTB3]	3.39 ± 0.24	3.46 ± 0.16
KQKYFYKGGLVWDENSSDGRYVKE [CLK3]	3.53 ± 0.2	3.62 ± 0.043
ALWQVLARDCFATGRHYWEVDVQE [TRIM14]	2.4 ± 0.65	2.4 ± 0.24
TKRDSFLKRLYRAPIDWIEEYTTG [ALG2]	2.18 ± 0.54	2.23 ± 0.4
RSTNLLAAETASLEEQLQGWGEVM [ARL6IP1]	3.85 ± 0.32	4.15 ± 0.23
PGPTAPSPTSRPPWAVDPAFAERY [PDLIM7]	2.2 ± 0.43	3.02 ± 0.36
RERPLNVFCDMETDGGGWLVFQRR [TNXB]	3 ± 0.98	2.79 ± 0.48
DIVFSKIKGKSCRTITFEQFQEAL [TPPP]	2.46 ± 0.29	2.31 ± 0.13
KSSIYESDFQIEPGFYATYESTLF [MIA2]	2.33 ± 0.52	2.3 ± 0.31
SKCKIIHTDIKPENILMCVDDAYV [SRPK2]	2.39 ± 0.33	2.5 ± 0.17
AEVVKILQTMLRQSAFLHLPLPEQ [INTS4]	2.75 ± 0.51	2.89 ± 0.22
EATNGREGLLRFSSWPFSIQDVVQ [AUP1]	2.93 ± 0.21	3.09 ± 0.37
AHIALETLEGHQRAIMAHMTVEEI [FLOT1]	3.25 ± 0.29	3.51 ± 0.32
LETHFRDVSSTEEFLELSPQKLKE [GAN]	5.38 ± 0.18	5.37 ± 0.084
MNTNSKEVLSLGVQVPEAWEELLT [ZSCAN9]	3.08 ± 0.47	3.52 ± 0.34
YDIEVNTRRAQADLAYQLQVAKTK [FLOT1]	4.35 ± 0.18	4.33 ± 0.19
TCSRVDYCLLSDHGCEYSCVNMDR [MATN2]	2.84 ± 0.24	2.82 ± 0.32
GDAGSRGPMGMRGPPGPQGPPGSP [EMID1]		4.54 ± 1.7
GGGGLHSVGTYIIDLLTFLTGQKA [GFOD1]	2.1 ± 0.31	1.98 ± 0.36
LHRGQLSLFCLEDKELLCCSCQAD [TRIM35]	2.68 ± 0.1	2.79 ± 0.31
ALAKKFIDKNTQLTLQVYREQADS [TRIM14]	2.88 ± 0.31	3.09 ± 0.49

Sequence	protein stability index (treatment: DMSO)	protein stability index (treatment: MLN4924 1 uM, 8 h)
RRDAETWFLSKTEELNKEVASNSE [KRT16]	5.09 ± 0.35	5.19 ± 0.12
NRLSELEVANKDLTERKYKGDSTI [SASS6]	4.71 ± 0.38	4.96 ± 0.38
DEELHLLIISCRKLFYFKIWAFLD [FBXO39]	2.75 ± 0.52	2.47 ± 0.69
GGTSVGSLGVPGSVGGVPGGTGSG [ZBTB22]	4.41 ± 0.29	4.76 ± 0.088
EISGPLTSANKITLVSSGSGTMGA [FLOT1]	3.46 ± 0.046	3.5 ± 0.26
KAQLLARVNKEHEHKLKVVRDQIS [TRIM9]	3.34 ± 0.27	3.42 ± 0.075
VVKVLLESGASIEDHNENGHTPLM [ANKRD17]	3.17 ± 0.25	3.25 ± 0.26
VFLHLLLLFKLVAPVTFRHHRYDD [CPN1]	3.12 ± 0.13	3.14 ± 0.23
DPSGVSGATVGRKSRRSRSESETS [C18orf25]	5.69 ± 0.17	5.42 ± 0.49
DVSLCRWHPKPYCQALPYGPGYWM [FBXO34]	2.33 ± 0.35	2.15 ± 0.32
LKRRFSRLENRYEALAKQVASEMR [DAPK3]	2.47 ± 0.26	2.69 ± 0.17
WGCSCCPPETKHQALSGTPKKGPA [TSPAN10]	4.13 ± 0.41	4.44 ± 0.26
LLCPLCQEEEQAETPMAPVPLGPL [TRIM15]	3.38 ± 0.67	3.73 ± 0.35
TIVNFPITNVDLREYLSEEVQAVH [USP39]	2.92 ± 0.18	3.41 ± 0.41
LSTNDKTIKLWKITERDKRPEGYN [PPP2R2C]	3.6 ± 0.28	3.79 ± 0.61
IQPDDLINQLTFIMDANQTYLVSE [FAF2]	2.32 ± 0.27	2.37 ± 0.31
SECGKAFPRKSELTEHQRIHTGIK [ZNF649]	4.07 ± 0.19	4.2 ± 0.062
QFYRNLGKSGLRVSCLGLGTWVTF [KCNAB2]	2.24 ± 0.86	2.2 ± 0.32
LKKHGPICQKTATKKRKTFDSSRQ [ZC2HC1A]	4.09 ± 0.26	4.13 ± 0.38
ILDLSCNKLTTLPSDFCGLTHLVK [LRRC59]	2.02 ± 0.38	2.09 ± 0.022
ADSLQASMEKDATLNVDRKEKCVS [DLC1]	5.35 ± 0.35	5.3 ± 0.25
SSPVTTLTQTMHDLAGLGSETPKS [CDC25B]	4.97 ± 0.31	5.13 ± 0.14
AAARCVVLDCRPYLAFAASNVRGS [DUSP5]	2.15 ± 0.55	2.2 ± 0.093

Sequence	protein stability index (treatment: DMSO)	protein stability index (treatment: MLN4924 1 uM, 8 h)
GQESEVPYKREEEALEERRLSRGE [PKD2L1]	5.39 ± 0.14	5.53 ± 0.15
LKKSSQVPRTEAPAPASSTPQEPW [PDLIM7]	4.74 ± 0.3	4.76 ± 0.46
WKSHLKKVQKPLLQAPFLPPKAPP [RHOBTB1]	3.21 ± 0.17	3.37 ± 0.34
ETFRQQFRQFGYQDSPGPHEALSR [ZNF396]	3.34 ± 0.22	3.68 ± 0.043
SGQRLGGYRTSAVASGLQFDVETR [WDFY2]	3.82 ± 0.23	3.74 ± 0.27
AIQLLSRMEYVHSKNLIYRDVKPE [CSNK1G1]	2.28 ± 0.2	2.33 ± 0.31
LCDVVLVVGAKKIYAHRVILSACS [KLHL20]	2.7 ± 0.29	2.74 ± 0.39
VCIVQKNDTKKMYAMKYMNKQKCV [STK32A]	2.21 ± 0.11	2.5 ± 0.45
RHCKKYWLISEEEKTQKNQCWKSL [FBXO3]	2.5 ± 0.35	2.96 ± 0.4
LALEEPVDYKQSVLNVAGEAGGKQ [SLC6A17]	4.91 ± 0.45	5.32 ± 0.14
RDAKAAMAGRLMIRKLVAEKLNIP [AASDHPPT]	2.62 ± 0.28	2.79 ± 0.36
NTTCQTENRLSVFFSVIFMTVGIL [PTGFR]	2.39 ± 0.53	2.64 ± 0.46
ETDSEMNSQESRSDLEDMEEEEGT [SMG5]	5.74 ± 0.16	5.69 ± 0.074
LLFAGSSLASQVHAAAVNGDKGAL [INVS]	2.61 ± 0.34	2.76 ± 0.21
ALLKFKPGAFIAGVPVQPVLIRYP [LPCAT4]	2.54 ± 0.73	2.39 ± 0.7
FSRVVHLYRNGKDQDGDQAPEYRG [MOG]	3.77 ± 0.21	3.88 ± 0.34
STRQTQSWTAVTPQQTWASPAEVV [C18orf25]	3.63 ± 0.078	3.98 ± 0.24
SRAEPIRTTVFQYPVGWPPVQELP [ZMAT5]	2.38 ± 0.41	2.82 ± 0.34
SHLQWQESRLKRSNPLAREIFRRH [ZSCAN9]	3.18 ± 0.29	3.35 ± 0.27
SNNITLREDQLDTVLAVLEDSSRD [INTS4]	5.25 ± 0.18	5.28 ± 0.16
QGVCYLVLCEAAFPKKLAFAYLED [SEC22B]	3.26 ± 0.27	3.05 ± 0.058
